B1: Ab_001 (H5S14-1A1A) (antibody, V domains shown)
VH: DVKLVESGGGLVKPGGSLKLSCAASVFTFSRYTMSWVRQTPEKRLEWVATISSGGSYTYYPDSVKGRFTISRDNAKNTLYLQMSSLKSEDTAIYYCTRGGDGLFDYWGQGTALTVSS
VL: DVQITQSPSYLAASPGETITINCRASKSISKYLAWYQEKPGKTNQLLIYSGSTLQSGIPSRFSGSGSGTDFTLTISSLEPEDFAMYYCQQHNEYPWTFGGGTKLEIK
notes: also called Ab_1
B2: Ab_065 (H5S20-39A29A) (antibody, V domains shown)
VH: EVKLVESGGGLVKPGGSLKLSCAASGFTFSSYAMSWVRQTPETRLEWVASISSGGNTYYPDSVKGRFTISRDNVRNILYLQMSSLRSEDTAMYFCTRGGYGSSHVIWGQGTTLTVSS
VL: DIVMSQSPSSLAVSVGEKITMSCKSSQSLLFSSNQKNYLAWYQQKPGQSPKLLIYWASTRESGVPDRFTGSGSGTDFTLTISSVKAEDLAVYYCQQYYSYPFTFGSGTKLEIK
notes: also called Ab_65
B3: Ab_063 (H5S20-4A4A) (antibody, V domains shown)
VH: EVKLVESGGGLMKPGGSLKLSCAASGFTFSSYAMSWVRQTPETRLEWVASISSGGSTYYPDSVKGRFTISRDNVRNILYLQMSSLRSEDTAMYFCTRGGYGSSYVIWGQGTTLTVSS
VL: DIVMSQSPSSLAVSVGEKITMSCKSSQSLLFSSIQKNYLAWYQQKPGQSPKLLVYWASTRESGVPDRFTGSGSGTDFTLTISSVKAEDLAVYYCQQYYSYPFTFGSGTKLEIK
notes: also called Ab_159; Ab_63
B4: Ab_013 (H5S14-14A11A) (antibody, V domains shown)
VH: QVQLQQSGAELVRPGTSVKISCKASGYIFTNYWLGWIKQRPGHGLEWIGDVYPGGGYNKYNEKFKGKATLTVDTSASTAYMQLSRLTSEDSAVYFCAGAMDYWGQGTSVTVSS
VL: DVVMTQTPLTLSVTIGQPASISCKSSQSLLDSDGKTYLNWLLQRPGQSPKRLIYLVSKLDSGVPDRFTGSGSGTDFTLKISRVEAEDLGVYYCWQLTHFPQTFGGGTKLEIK
notes: also called Ab_13
B5: Ab_046 (H5S15-35A31A) (antibody, V domains shown)
VH: QVQLQQSGAELVRPGTSVKISCKASGYTFTNSWLGWVKQRPGHGLEWIGDIYPGGGYNKYNEKFKGKATLTADTSSSTAYMQLGSLTSEDSAVYFCAGAMDYWGQGTSVTVSS
VL: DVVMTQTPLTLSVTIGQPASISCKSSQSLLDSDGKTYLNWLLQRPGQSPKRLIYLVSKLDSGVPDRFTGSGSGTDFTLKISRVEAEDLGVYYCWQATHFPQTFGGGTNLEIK
notes: also called Ab_46
B6: Ab_045 (H5S15-31A12C) (antibody, V domains shown)
VH: QVQLQQSGAELVRPGTSVKISCKASGYAFTNSWLGWVKQRPGHGLEWIGDIYPGGGYNKYNEKFKGKATLTADTSSSTAYMQLSSLTSEDSAVYFCAGALDYWGQGTSVTVSS
VL: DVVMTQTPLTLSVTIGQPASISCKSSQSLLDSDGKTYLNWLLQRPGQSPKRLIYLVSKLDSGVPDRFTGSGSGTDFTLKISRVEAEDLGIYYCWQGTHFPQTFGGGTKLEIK
notes: also called Ab_45
B7: Ab_067 (H5S20-7B7B) (antibody, V domains shown)
VH: QVQLQQSGAELIRPGTSVKISCKASGYRFTNSWLGWIKLRPGHGLEWIGDIYPGGGYNKYNEKFRGKATLTADTSSSTAYMQLSSLTSEDSAVYFCAGAMDSWGQGTSVTVSS
VL: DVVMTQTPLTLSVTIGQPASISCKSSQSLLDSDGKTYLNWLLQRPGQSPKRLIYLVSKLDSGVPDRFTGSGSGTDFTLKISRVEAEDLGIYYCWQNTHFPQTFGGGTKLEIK
notes: also called Ab_67
B8: Ab_070 (H5S20-7A7A) (antibody, V domains shown)
VH: QVQLQQSGAELVRPGTSVKISCKASGYRFTNSWLGWIKQRPGHGLEWIGDIYPGGGYNKYNEKFRGKATLTADTSSSTAYMQLSSLTSEDSAVYFCAGAMDSWGQGTSVTVSS
VL: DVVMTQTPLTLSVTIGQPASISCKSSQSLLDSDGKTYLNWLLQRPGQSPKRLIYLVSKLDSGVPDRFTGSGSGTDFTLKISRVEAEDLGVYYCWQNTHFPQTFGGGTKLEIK
notes: also called Ab_70
B9: Ab_069 (H5S20-43A19B) (antibody, V domains shown)
VH: QVQLQQSGAELVRPGTSVMISCKASGYTFTNYWLGWVKQRPGHGLEWIGDIYPGGGYIIYNEKFKGKATLTVDSSATTAYMQLSSLTSEDSAVYFCAGAMDYWGQGTSVTVSS
VL: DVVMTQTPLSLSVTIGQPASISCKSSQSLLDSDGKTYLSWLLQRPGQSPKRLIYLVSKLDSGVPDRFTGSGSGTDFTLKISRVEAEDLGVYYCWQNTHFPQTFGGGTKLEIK
notes: also called Ab_155; Ab_69
B10: Ab_068 (H5S20-24A19A) (antibody, V domains shown)
VH: QVQLQQSGAELVRPGTSVKISCKASGYTFTNYWLGWVKQRPGHGLEWIGDIYPGGGYIIYNEKFKGKATLTVDSSATTAYIQLNSLTSEDSAVYFCAGAMDHWGQGTSVTVSS
VL: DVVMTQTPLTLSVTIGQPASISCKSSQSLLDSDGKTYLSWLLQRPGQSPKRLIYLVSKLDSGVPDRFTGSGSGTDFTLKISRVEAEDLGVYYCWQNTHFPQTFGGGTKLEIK
notes: also called Ab_68
B11: Ab_051 (H5S19-4A6A) (antibody, V domains shown)
VH: QVQLKESGPGLVAPSQSLSITCTVSGFSLTGYGVNWVRQPPGKGLEWLGMIWGDGNTDYNSALKSRLSISKDNSKSQVFLKMNSLQTDDTARYYCARSYGSYWGQGTLVTVSA
VL: QIVLTQSPAIMSASPGEKVTMTCSASSSVSYMYWYQQKPGSSPRLLIYDTSNLASGVPVRFSGSGSGTSYSLTISRMEAEDAATYYCQQWSSYPFTFGSGTKLEIK
notes: also called Ab_51
B12: Ab_050 (H5S19-9A11A) (antibody, V domains shown)
VH: QVQLKQSGPGLVQPSQSLSITCTVSGFSLTTYGVHWVRQSPGKGLEWLGVIWSGGSTDYNAAFISRLSISKDNSKSQVFFKMNSLQANDTAIYYCARRGYGSPYYYAMDYWGQGTSVTVSS
VL: EIVLTQSPALMAASPGEKVTITCSVSSSISSSNLHWYQQKSETSPKPWIYGTSNLASGVPVRFSGSGSGTSYSLTISSMEAEDAATYYCQQWSSYPLTFGAGTKLELK
notes: also called Ab_50
B13: Ab_030 (H5S15-18A17A) (antibody, V domains shown)
VH: QVQLQQSGAELVRPGTSVKMSCKAAGYTFTNSWIGWVKQRPGHGLEWIGDIYPGGGYTNYYEKFKVKATLTADTSSSTAYMQLSSLTSEDSAIYYCASSGAYWGQGTTLTVSS
VL: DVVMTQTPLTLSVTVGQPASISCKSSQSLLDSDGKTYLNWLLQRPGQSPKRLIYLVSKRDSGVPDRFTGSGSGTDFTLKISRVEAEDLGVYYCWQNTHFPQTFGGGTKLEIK
notes: also called Ab_30
B14: Ab_031 (H5S15-8A17A) (antibody, V domains shown)
VH: QVQLQQSGAELVRPGTSVKMSCKAAGYTFTDSWIGWVKQRPGHGLEWIGDIYPGGGYTNYNEKFKGKATLTADTSSSTAYMQLSRLTSEDSAIYYCASSGAYWGQGTTLTVSS
VL: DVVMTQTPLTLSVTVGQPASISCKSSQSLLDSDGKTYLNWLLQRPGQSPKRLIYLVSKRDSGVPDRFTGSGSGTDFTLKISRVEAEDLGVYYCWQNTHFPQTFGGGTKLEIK
notes: also called Ab_31

Key:
[1] = molecular target: T1, murine HVEM (murine, UniProt Q80WM9 39-206, limits assumed); experiment: ELISA
T1 construct: also called Mouse
T1 sequence (looked up): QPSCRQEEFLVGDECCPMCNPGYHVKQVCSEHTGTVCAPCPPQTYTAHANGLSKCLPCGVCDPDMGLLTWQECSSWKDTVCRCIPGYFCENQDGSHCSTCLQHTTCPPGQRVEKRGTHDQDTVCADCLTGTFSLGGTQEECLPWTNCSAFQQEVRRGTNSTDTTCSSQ

[2] = molecular target: T2, human HVEM (human, UniProt Q92956 39-202, limits assumed); experiment: ELISA
T2 sequence (looked up): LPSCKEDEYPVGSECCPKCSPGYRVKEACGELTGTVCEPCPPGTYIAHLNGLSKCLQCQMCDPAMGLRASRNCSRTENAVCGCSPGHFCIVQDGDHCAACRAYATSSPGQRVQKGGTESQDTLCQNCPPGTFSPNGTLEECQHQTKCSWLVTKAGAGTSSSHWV

[3] = molecular target: T3, cynomolgus monkey HVEM (cynomolgus monkey, UniProt A0A2K5W0R1 39-203); experiment: ELISA
T3 sequence: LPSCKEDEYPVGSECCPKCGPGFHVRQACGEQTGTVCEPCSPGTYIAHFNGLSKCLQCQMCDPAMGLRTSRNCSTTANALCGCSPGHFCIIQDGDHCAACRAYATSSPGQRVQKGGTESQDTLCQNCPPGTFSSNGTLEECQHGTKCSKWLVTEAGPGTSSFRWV

[4] = molecular target: T4, Human HEVM recombinant protein (Sino Biological, 10334-H02H) (human, UniProt Q92956 39-202); experiment: competition ELISA, competitor BTLA-His
T4 construct: construct known only by catalogue number; also called HVEM; human HVEM
T4 sequence (looked up): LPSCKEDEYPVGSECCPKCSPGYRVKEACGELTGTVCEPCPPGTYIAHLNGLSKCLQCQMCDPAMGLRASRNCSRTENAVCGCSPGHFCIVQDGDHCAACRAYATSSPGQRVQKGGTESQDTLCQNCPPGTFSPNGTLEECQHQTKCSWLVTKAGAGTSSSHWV
Description: (§1) The competitive activity of HVEM antibody to BTLA or LIGHT was evaluated with ELISA-based competitive assay. Briefly Human HEVM recombinant protein (Sino Biological, 10334-H02H, 4 ug/ml, 100 ul/well) was coated to ELISA plate (Thermo Scientific, 469949, 4C overnight). A pre-mixture of HVEM antibody clone with seral dilution and 400 nM BTLA-His (R&D systems, 9235-BT-050) or LIGHT-His (SinoBiological, 10386-H07H) recombinant protein was made and added to the ELISA plate after blocking with 3% BSA (200 ul/well, RT 2 Hr) for 1 Hr at RT. The serial dilutions of HVEM antibody clone involve 7 different concentrations, with a 3-fold dilution performed start from 100 nM for BTLA or 325 nM for LIGHT competitive assay. The concentration was the final concentration. Plate was washed with PBST; diluted HRP-anti-His (Biolegend, 652504, 1:1000) with PBS containing 5% FBS was added 100 ul per well for 1 Hr at RT. TMB substrate (KPL, 52-00-00) 100 ul per well after washing and incubate at room temperature for 15 minutes; then stop the development by adding 100 ul stop solution (KPL, 50-85-06). Plate was read at 450 nm. The IC50 was calculated using GraphPad Prism software (GraphPad Software, Inc. San Diego, CA, USA).

[5] = molecular target: T4, Human HEVM recombinant protein (Sino …); experiment: competition ELISA, competitor LIGHT-His
Description: as §1

[6] = molecular target: T5, His-tagged human HVEM (human, UniProt Q92956 39-202, limits assumed); experiment: BLI OctetRed96, mAb captured, 200 nM His-HVEM
T5 construct: Analyte of the BLI assay, 200 nM in PBS; not shown: His tag
T5 sequence (looked up): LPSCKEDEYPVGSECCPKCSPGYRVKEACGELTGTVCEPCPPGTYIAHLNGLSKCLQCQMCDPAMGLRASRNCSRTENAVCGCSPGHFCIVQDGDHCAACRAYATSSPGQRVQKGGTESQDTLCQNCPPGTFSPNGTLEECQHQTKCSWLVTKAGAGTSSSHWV
Procedure, shortened: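 Murine anti-human HVEM antibodies captured from culture supernatant on anti-mouse IgG Fc biosensors, then associated with 200 nM His-tagged human HVEM in PBS, followed by dissociation in PBS. koff, kon and KD obtained by curve fitting.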

Row | Binder | ELISA signal [1] | ELISA signal [2] | ELISA signal [3] | IC50 [4] [nM] | IC50 [5] [nM] | Kd [6] [nM] | koff [6] [s⁻¹] | kon [6] [M⁻¹ s⁻¹]
1 | B1 | 0.057 | 3.3 | 0.072 | 2.2 | 715 | 550 | 0.154 | 280000
2 | B2 | 0.044 | 3.24 | 1.52 | 1.7 | 8 | 14.9 | 0.0049 | 330000
3 | B3 | 0.043 | 3.1 | 3.13 | 2.2 | 5.7 | 4.09 | 0.00216 | 528000
4 | B4 | 0.048 | 3 | 2.74 | – | 28.1 | 4.39 | 0.00149 | 340000
5 | B5 | 0.042 | 2.94 | 3.03 | – | 27.2 | 4.59 | 0.00169 | 368000
6 | B6 | 0.042 | 3.08 | 2.9 | – | 31 | 7.32 | 0.00265 | 362000
7 | B7 | 0.047 | 3.05 | 3.04 | – | 13.6 | 2.65 | 0.00134 | 505000
8 | B8 | 0.062 | 3.23 | 3.1 | – | 17.8 | 2.33 | 0.00102 | 438000
9 | B9 | 0.054 | 3.13 | 3.04 | – | 22.3 | 2.97 | 0.000803 | 271000
10 | B10 | 0.044 | 3.03 | 3.04 | – | 20.5 | 5.99 | 0.00192 | 320000
11 | B11 | 0.043 | 3.18 | 0.563 | 1.3 | 18.6 | 28.8 | 0.0143 | 496000
12 | B12 | 0.047 | 3.02 | 0.094 | 3 | 117 | 42.2 | 0.00481 | 114000
13 | B13 | 0.046 | 3.08 | 2.98 | – | 21.9 | 10.3 | 0.00419 | 405000
14 | B14 | 0.042 | 3.08 | 3.06 | – | 22 | 11 | 0.00321 | 291000
